Assay results reported in article PMC11933327, “Asymmetric activation of dimeric ATM/Tel1 kinase” (Cell Discovery, 2025).
One block for each molecule: values may come before it.

Columns and labels:
[1] = target: ATM/Tel1, active state (endogenously activated by DNA damage) (Schizosaccharomyces pombe) (UniProt O74630); assay: mass photometry; active ATM/Tel1 incubated with over-saturated full-length CHK2, complex fractionated by GraFix
[2] = target: ATM/Tel1, active state (endogenously activated by DNA damage) (Schizosaccharomyces pombe) (UniProt O74630); assay: cryo-EM structure; active wild-type ATM/Tel1 incubated with the CHK2 63-74 peptide and AMP-PNP in vitro; Structure 2, 3.6 Å
[3] = target: ATM/Tel1, basal state (Schizosaccharomyces pombe) (UniProt O74630); assay: cryo-EM structure; basal state; resolution improved from 7.8 Å to 4.3 Å with a new algorithm
active ATM/Tel1 dimer = assay: Mass photometry of GraFix-assembled ATM/Tel1-CHK2 complex; format: binding, Schizosaccharomyces pombe; conditions: over-saturated full-length CHK2, AMP-PNP, mass photometry 25 °C, 20 nM final protein
Experimental: to SDS- PAGE and analyzed by Western blot (WB) using pan- acetylated -Lysine (Rabbit monoclonal, Cat# 9441S, Cell Signaling Technology). and phospho-ATM/ATR substrate (pSQ/pTQ motif, Rabbit monoclonal, Cat# 6966, Cell Signaling Technology) antibodies.
Surface plasmon resonance
Interaction analysis between ATM/Tel1 in different states and CHK2 was performed at 20 °C using a Biacore 8K (GE Healthcare) by immobilizing CHK2 onto a CM5 sensor chip. A twofold dilution series of […] was injected at a flow rate of 30 µl min –1 in PBS running buffer. All conditions were tested for at least five different antibody concentrations, and the blank channel of the chip served as the negative control. After each cycle, the sensor was regenerated with 10 mM NaOH.
Data processing and kinetic analyses were performed using Biacore 8K Evaluation Software […]
To determine the stoichiometry and mass distribution between active ATM/Tel1 and its substrate CHK2, standard mass photometry landing assays were performed at 25 °C using a TwoMP instrument (Refeyn) mounted on an active anti-vibration platform. […] Bovine serum albumin standards (Beyotime) were measured on the same day to calibrate extracted particle contrast relative to mass. […]

[4] = target: ATM/Tel1, active state (endogenously activated by DNA damage) (Schizosaccharomyces pombe, UniProt O74630 1-2812, autophosphorylation and acetylation (sites not given)); assay: SPR
Sequence of ATM/Tel1, active state (endogenously activated by DNA damage) (O74630 whole entry): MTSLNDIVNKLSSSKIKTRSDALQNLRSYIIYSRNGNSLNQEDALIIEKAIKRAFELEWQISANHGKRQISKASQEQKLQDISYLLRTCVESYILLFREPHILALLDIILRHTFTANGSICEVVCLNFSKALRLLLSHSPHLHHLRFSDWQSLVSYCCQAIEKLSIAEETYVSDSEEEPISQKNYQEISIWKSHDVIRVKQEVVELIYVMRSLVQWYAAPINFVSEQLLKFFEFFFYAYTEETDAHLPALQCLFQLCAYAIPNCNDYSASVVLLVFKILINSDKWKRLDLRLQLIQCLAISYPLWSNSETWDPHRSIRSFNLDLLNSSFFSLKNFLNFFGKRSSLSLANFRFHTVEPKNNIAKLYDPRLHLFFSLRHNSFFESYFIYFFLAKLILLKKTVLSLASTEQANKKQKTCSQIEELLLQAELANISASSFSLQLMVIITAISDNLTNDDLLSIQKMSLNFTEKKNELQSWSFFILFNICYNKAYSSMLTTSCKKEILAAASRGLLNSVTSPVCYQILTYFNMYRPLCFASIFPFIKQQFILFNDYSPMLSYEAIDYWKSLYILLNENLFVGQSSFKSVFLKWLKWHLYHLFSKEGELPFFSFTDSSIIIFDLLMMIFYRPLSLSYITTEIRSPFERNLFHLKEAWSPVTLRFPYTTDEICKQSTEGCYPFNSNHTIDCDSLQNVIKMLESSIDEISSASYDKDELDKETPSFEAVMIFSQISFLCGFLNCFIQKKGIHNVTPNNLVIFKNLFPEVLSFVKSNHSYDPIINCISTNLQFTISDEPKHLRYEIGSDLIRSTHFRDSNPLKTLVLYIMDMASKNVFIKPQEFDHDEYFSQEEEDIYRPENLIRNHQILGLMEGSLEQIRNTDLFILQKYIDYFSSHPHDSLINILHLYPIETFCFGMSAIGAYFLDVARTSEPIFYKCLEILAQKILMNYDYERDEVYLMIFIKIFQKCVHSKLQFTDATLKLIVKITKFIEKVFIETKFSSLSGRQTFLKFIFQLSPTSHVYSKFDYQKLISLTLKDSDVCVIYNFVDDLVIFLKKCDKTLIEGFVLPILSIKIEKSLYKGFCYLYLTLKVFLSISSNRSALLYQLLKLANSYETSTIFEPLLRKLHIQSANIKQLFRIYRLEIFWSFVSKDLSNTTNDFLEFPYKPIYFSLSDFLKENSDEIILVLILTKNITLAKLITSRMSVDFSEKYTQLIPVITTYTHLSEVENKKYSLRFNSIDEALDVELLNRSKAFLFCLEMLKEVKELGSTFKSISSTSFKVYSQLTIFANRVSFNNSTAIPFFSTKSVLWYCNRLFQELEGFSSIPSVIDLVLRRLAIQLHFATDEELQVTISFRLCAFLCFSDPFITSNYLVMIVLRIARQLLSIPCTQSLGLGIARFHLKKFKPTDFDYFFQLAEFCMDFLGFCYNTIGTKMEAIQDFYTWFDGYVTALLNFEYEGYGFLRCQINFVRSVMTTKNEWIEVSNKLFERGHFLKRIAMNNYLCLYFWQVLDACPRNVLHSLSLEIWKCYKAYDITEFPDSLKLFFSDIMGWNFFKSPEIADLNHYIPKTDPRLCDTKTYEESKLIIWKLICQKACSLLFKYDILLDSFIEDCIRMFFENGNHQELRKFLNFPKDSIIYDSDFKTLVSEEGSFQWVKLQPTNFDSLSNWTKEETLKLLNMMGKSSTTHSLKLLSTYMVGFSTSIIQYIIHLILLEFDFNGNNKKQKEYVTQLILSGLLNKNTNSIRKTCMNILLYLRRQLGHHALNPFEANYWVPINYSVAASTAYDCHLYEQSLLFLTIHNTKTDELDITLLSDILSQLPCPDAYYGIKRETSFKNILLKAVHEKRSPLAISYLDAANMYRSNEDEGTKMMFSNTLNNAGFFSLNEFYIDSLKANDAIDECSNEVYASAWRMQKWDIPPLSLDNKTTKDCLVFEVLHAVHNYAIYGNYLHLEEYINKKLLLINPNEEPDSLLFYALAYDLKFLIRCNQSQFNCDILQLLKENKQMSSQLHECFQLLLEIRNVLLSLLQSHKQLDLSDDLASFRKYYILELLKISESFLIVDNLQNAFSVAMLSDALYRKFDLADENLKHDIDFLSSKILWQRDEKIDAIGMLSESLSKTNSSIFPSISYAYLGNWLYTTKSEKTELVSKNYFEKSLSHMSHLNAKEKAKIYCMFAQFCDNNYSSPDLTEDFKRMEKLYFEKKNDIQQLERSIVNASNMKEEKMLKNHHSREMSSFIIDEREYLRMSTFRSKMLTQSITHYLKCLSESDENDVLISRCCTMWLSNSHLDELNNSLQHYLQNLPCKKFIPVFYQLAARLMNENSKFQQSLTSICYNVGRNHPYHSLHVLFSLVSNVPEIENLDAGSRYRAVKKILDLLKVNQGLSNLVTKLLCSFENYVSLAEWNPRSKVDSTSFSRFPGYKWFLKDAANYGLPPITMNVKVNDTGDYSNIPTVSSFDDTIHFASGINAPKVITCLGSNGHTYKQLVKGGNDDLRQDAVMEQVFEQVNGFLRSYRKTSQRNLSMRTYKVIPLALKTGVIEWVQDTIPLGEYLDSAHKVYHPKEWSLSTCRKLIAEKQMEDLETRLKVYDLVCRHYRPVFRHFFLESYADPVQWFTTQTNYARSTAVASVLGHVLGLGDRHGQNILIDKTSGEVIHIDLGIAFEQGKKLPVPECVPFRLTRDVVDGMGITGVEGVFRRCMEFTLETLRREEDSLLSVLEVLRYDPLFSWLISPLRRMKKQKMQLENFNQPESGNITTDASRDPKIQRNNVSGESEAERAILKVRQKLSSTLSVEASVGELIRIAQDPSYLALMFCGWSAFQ

ATM/Tel1, basal state [5] = target: ATM/Tel1, basal state (Schizosaccharomyces pombe, UniProt O74630 1-2812); assay: SPR
ATM/Tel1, basal state [6] = target: T1, ATM/Tel1, basal state (Schizosaccharomyces pombe, UniProt O74630 1-2812); assay: SPR; CHK2 (full length or peptide) at varied concentrations on basal or active ATM/Tel1; conditions: both partners purified
T1 construct: ATM/Tel1 kinase of Schizosaccharomyces pombe, basal state, symmetric homodimer; also called basal ATM/Tel1; basal-state ATM/Tel1; source: purified

Molecule: ATM/Tel1, active state (endogenously activated by DNA damage), O74630 1-2812
stoichiometry N [1]: 2
stoichiometry N [2]: 2

Molecule: full-length CHK2: human full-length CHK2, C-terminal 6× His tag, expressed in E. coli BL21(DE3)
CHK2 molecules bound per ATM/Tel1 dimer (active ATM/Tel1 dimer): only one CHK2 molecule is bound to an ATM/Tel1 dimer

Further lines, with some results ahead:

stoichiometry N [3]: 2
Molecule: ATM/Tel1, basal state, O74630 1-2812

Kd (ATM/Tel1, basal state [5]): 296 µM
fold reduction of affinity against active ATM/Tel1 (ATM/Tel1, basal state [6]): > 120 fold
B1: CHK2 substrate peptide (CHK2 63-74) (peptide, UniProt O96017 63-74, looked up)
peptide: LETVSTQELYSI
notes: CHK2 residues 63-74; also called CHK2 peptide
Kd [4]: 2.37 µM
